Molecular target: T1, mCAT-1 receptor expressed on HEK 293 cells (stable cell line) (mouse, UniProt Q09143 1-622)
T1 construct: whole, on cells
Assay: fluorescence microscopy, counting of green fluorescent Mo-NP bound per cell after 2.5 h at 37 C; 120 cells per cell line

T1 sequence (Q09143 whole entry): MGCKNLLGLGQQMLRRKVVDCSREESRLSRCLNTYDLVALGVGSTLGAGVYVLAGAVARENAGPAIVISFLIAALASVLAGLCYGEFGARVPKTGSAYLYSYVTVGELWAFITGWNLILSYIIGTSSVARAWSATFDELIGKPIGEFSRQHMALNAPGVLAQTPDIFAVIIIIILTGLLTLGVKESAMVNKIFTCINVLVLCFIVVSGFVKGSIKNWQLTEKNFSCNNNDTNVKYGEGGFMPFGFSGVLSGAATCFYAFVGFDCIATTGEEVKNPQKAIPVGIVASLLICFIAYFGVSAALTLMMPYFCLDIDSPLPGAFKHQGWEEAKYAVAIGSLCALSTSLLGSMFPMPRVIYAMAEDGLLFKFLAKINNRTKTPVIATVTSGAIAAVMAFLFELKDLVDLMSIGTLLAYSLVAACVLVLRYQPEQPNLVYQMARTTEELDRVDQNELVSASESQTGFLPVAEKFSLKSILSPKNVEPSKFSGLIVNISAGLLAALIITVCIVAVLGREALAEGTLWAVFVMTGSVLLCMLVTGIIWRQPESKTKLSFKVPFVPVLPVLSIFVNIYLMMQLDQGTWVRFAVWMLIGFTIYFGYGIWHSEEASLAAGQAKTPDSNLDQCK

B1: Moloney murine leukemia virus (Mo-MLV) envelope protein, in virus membranes coated onto 100 nm carboxylate-modified fluorescent nanoparticles (Mo-NP) (other)
chain: ASPGSSPHQVYNITWEVTNGDRETVWATSGNHPLWTWWPDLTPDLCMLAHHGPSYWGLEYQSPFSSPPGPPCCSGGSSPGCSRDCEEPLTSLTPRCNTAWNRLKLDQTTHKSNEGFYVCPGPHRPRESKSCGGPDSFYCAYWGCETTGRAYWKPSSSWDFITVNNNLTSDQAVQVCKDNKWCNPLVIRFTDAGRRVTSWTTGHYWGLRLYVSGQDPGLTFGIRLRYQNLGPRVPIGPNPVLADQQPLSKPKPVKSPSVTKPPSGTPLSPTQLPPAGTENRLLNLVDGAYQALNLTSPDKTQECWLCLVAGPPYYEGVAVLGTYSNHTSAPANCSVASQHKLTLSEVTGQGLCIGAVPKTHQALCNTTQTSSRGSYYLVAPTGTMWACSTGLTPCISTTILNLTTDYCVLVELWPRVTYHSPSYVYGLFERSNRHKREPVSLTLALLLGGLTMGGIAAGIGTGTTALMATQQFQQLQAAVQDDLREVEKSISNLEKSLTSLSEVVLQNRRGLDLLFLKEGGLCAALKEECCFYADHTGLVRDSMAKLRERLNQRQKLFESTQGWFEGLFNRSPWFTTLISTIMGPLIVLLMILLFGPCILNRLVQFVKDRISVVQAL
notes: Native env in virus membranes released by osmotic shock and sonication, then extruded over nanoparticles; In the β-lactamase experiments the particle core also carried covalently coupled B. cereus penicillinase; also called Mo-nanoparticles; Mo env-coated nanoparticles
fold more Mo-NP bound than by cells lacking the receptor: 26 fold
